The target of the data set is T1, Bruno-EGFP (BrunoFL-EGFP) (UniProt O02374).
T1 sequence: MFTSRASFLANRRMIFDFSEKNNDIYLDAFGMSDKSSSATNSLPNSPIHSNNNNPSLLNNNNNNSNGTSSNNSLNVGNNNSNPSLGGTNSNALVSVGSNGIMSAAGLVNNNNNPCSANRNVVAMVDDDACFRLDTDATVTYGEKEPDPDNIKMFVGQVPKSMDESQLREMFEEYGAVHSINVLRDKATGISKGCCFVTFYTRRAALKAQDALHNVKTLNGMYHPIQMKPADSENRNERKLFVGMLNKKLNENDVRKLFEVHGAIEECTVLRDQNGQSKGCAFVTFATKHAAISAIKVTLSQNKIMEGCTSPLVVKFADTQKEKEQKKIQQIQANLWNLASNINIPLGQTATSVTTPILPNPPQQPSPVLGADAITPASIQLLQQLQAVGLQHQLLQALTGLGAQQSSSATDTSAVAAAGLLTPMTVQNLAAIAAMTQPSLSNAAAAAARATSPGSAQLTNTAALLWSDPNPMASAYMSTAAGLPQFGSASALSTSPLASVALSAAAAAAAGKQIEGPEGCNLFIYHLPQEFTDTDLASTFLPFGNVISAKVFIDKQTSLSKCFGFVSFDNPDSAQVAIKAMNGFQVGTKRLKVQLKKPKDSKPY
Briefly: EMSA. Conditions: EMSA: 50 nM RNA, 20 mM Tris-HCl pH 7.5, 150 mM NaCl, 2 mM MgCl2, 5% glycerol, 0.5 mM TCEP, 20 min at room temperature; 0.8% agarose 0.5x TBE gel at 4 C. (In general: A gel shift assay detects complexes by their altered migration in electrophoresis.)
For the sequence “GGGAGUGAAGCAUUUGCGCGAUUUUCGUCUUUCUGUUUCCGUUUGCAAAAAAGUUUAUAAAAUGCUUACACUCUGCUGCAGACACGCCAACCGGAAGUGCGCACUAAGCGCUUGUUUGUAGCACAGUGUAGAAUUCUGGCGUAAUUUACAGCUCUACUUUAAAGUCUUCUAGAUAGCUAUCUACUAUUUAUAAACUUAUUUAUUGUCUUGAAUGUAUGUUAAUUGUAUGUAUUGAUGGUGAUCACGUUUUUUUUGUCCUAUAACAAGCUGCAAUGUAAAAUCCAAAAAAAAAAUG [oskar292]”, the binding result is “binds”.

For the sequence “GGGUGGAAAAUUCGCUUGCACAAAAUCAACGUUGCGGCUGAUUUAUUAUUGAUGUGCUCAAGCAAAUUCA [UUOES (UU67)]”, the binding entry is on record as “no binding”.

Take “GGGUGGAAAAUUCGCUUGCACAAAAUCAACGCCGCGGCUGAUUUAUUAUUGAUGUGCUCAAGCAAAUUCA [WTOES (WT67)]”: the binding entry was “no binding”.

The values are drawn from article PMC11567897.
